Data from US20160011195A1.
Each block holds one binder with its values, some of them ahead of it.

Key:
[1] = target: PLK1 PBD protein (residues 367-603) (human), P53350; assay: competitive FP, displacement of fluorescein tracer SEQ ID NO: 7 from PLK1 PBD (367-603)
[2] = target: PLK1 (endogenous, in HeLa / HeLa-H2B-GFP cells) (human), P53350; assay: cell-based or functional assay
[3] = target: PLK1 PBD protein (residues 367-603) (human), P53350; assay: competitive FP

PLK1 PBD protein (residues 367-603) (human), P53350, sequence (P53350 367-603 limits assumed): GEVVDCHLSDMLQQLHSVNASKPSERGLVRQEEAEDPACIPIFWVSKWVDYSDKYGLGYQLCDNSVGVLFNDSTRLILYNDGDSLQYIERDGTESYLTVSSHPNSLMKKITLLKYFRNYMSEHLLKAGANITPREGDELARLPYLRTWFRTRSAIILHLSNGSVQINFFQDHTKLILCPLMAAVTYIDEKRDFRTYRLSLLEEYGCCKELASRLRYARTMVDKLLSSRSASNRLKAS
PLK1 (endogenous, in HeLa / HeLa-H2B-GFP cells) (human), P53350, sequence (P53350 2-603): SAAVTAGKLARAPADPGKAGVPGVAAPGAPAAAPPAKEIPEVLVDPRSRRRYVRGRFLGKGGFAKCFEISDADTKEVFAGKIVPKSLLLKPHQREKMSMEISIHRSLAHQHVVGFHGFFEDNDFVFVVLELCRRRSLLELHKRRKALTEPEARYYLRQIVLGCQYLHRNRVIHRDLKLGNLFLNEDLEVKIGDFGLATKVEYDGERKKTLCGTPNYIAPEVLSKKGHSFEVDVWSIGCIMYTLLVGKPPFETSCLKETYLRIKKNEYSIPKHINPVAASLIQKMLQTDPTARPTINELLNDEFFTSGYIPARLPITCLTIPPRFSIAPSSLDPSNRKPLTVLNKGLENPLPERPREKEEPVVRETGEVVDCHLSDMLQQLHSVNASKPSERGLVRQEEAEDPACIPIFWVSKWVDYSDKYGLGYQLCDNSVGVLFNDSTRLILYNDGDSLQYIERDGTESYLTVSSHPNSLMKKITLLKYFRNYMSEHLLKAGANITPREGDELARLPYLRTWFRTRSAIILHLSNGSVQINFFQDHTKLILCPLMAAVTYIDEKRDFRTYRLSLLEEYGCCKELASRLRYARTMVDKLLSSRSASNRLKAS

Binder: LHSTAI (modifications not checked) [Ac-LHS[pT]AI (sample no. 5781)]
aberrant metaphase (30 µM) [2]: 23%
decrease of the percentage of viable cells, 24 hours, 30 µM (Annexin V/PI) [2]: 30%
relative fluorescence intensity of PLK1 staining at centrosomes (30 µM, HeLa-H2B-GFP) (arbitrary fluorescence units) [2]: 35

Binder: LLCSTPNGL (modifications not checked) [LLCS[pT]PNGL, native phospho-CDC25c PBD binding sequence (sample no. 292)]
aberrant prometaphase/metaphase features (30 µM) [2]: 25%
relative fluorescence intensity of PLK1 staining at centrosomes (HeLa-H2B-GFP) (arbitrary fluorescence units) [2]: 45

Binder: STPNGL (modifications not checked) [Sample No. 5792, fragment ligated inhibitor (4-(Methylamino) benzoic acid)]
IC50 [1]: 31.2 µM

Binder: STPNGL (modifications not checked) [Sample No. 5601, fragment ligated inhibitor]
IC50 [1]: 400 µM

Binder: PLHSTA (modifications not checked) [Ac-PLHS[pT]A (sample no. 5743)]
Aberrant mitoses @ 24 hr, 30 mM [2]: 40.3%
Apoptosis @24 hr [2]: 34%
cells with mitotic abnormalities (10 µM) [2]: 32%
relative fluorescence intensity of PLK1 staining at centrosomes (30 µM, HeLa-H2B-GFP) (arbitrary fluorescence units) [2]: 33

Binder: STPNGL (modifications not checked) [Sample No. 5830, fragment ligated inhibitor (4-(Propylamino) benzoic acid)]
IC50 [1]: 16.5 µM

Binder: LLCSTPNGL (modifications not checked) [Ac-LLCS[pT]PNGL (sample no. 5821)]
fraction of viable cells after 24 hours, 30 µM (Annexin V/PI) [2]: 57%

Binder: STPNGL (modifications not checked) [Sample No. 5754, fragment ligated inhibitor (4-methoxybenzoic acid)]
IC50 [1]: 125 µM

Binder: LLCSEPNGL (modifications not checked) [… (sample no. 345)]
fold less potent (than the phosphothreonine sequence) [3]: 1000 fold
IC50 [1]: 350 µM

Binder: STPNGL (modifications not checked) [Sample No. 5600, fragment ligated inhibitor]
IC50 [1]: 550 µM

Binder: STPNGL (modifications not checked) [Sample No. 5791, fragment ligated inhibitor (4-(Methylthio) benzoic acid)]
IC50 [1]: 18.5 µM

Binder: STPNGL (modifications not checked) [3G2-S[pT]PNGL (4-butylbenzoic acid) (Sample No. 5827)]
Aberrant mitoses @ 24 hr [2]: 53.8%
Apoptosis @24 hr [2]: 55.5%
proportion of viable cells after 24 hours, 30 µM (Annexin V/PI) [2]: 45%

Binder: STPNGL (modifications not checked) [Sample No. 5595, fragment ligated inhibitor]
IC50 [1]: 475 µM

Binder: STPNGL (modifications not checked) [Sample No. 5826, fragment ligated inhibitor (4-propylbenzoic acid)]
IC50 [1]: 10.8 µM

Binder: STPNGL (modifications not checked) [Sample No. 5786, fragment ligated inhibitor (4-ethoxybenzoic acid)]
IC50 [1]: 64.7 µM

Further lines, with some results ahead:

IC50 [1]: 600 µM
Binder: STPNGL (modifications not checked) [Sample No. 5599, fragment ligated inhibitor]

IC50 [1]: 380 µM
Binder: STPNGL (modifications not checked) [Sample No. 5593, fragment ligated inhibitor]

IC50 [1]: 375 µM
Binder: STPNGL (modifications not checked) [Sample No. 5591, fragment ligated inhibitor]

Aberrant mitoses @ 24 hr [2]: 47.9%
Apoptosis @24 hr, 30 mM [2]: 36.2%
relative fluorescence intensity of PLK1 staining at centrosomes (10 µM, HeLa-H2B-GFP) (arbitrary fluorescence units) [2]: 32
Binder: STPNGL (modifications not checked) [3G1-S[pT]PNGL (4-ethylbenzoic acid) (Sample No. 5788)]
proportion of viable cells after 24 hours, 30 µM (Annexin V/PI) [2]: 64%

IC50 [1]: 104 µM
Binder: STPNGL (modifications not checked) [Sample No. 5753, fragment ligated inhibitor]

IC50 [1]: 500 µM
Binder: PLHSEA (modifications not checked) [Ac-PLHSEA (sample no. 5744)]

IC50 [1]: 500 µM
Binder: STPNGL (modifications not checked) [Sample No. 5597, fragment ligated inhibitor]

aberrant prometaphase/metaphase features (30 µM) [2]: 9.5%
Binder: LLAAAPNGL (modifications not checked) [… (sample no. 5783)]

IC50 [1]: 300 µM
Binder: STPNGL (modifications not checked) [Sample No. 5604, fragment ligated inhibitor]
